Experimental data published in paper PMC3668522 (FEBS Open Bio, 2013).

Biological target: the molecule itself
Experiment: cross-linking; SDS-PAGE of the purified CTD polypeptide: 16-kDa dimer band beside the 8-kDa monomer band; dimer formation stimulated by the oxidizing agent Cu(II)-(1,10-phenanthroline)3 and cleaved by dithiothreitol (disulfide bond)

B1: C-terminal domain (CTD) polypeptide of Arabidopsis thaliana metal tolerant protein 1 (AtMTP1) (domain or fragment, UniProt Q9ZT63 320-398, looked up)
chain: MESTPREIDATKLEKGLLEMEEVVAVHELHIWAITVGKVLLACHVNIRPEADADMVLNKVIDYIRREYNISHVTIQIER
  stoichiometry N: 2
